Columns and labels:
Type in all cases: cell-based
[1] = system: cMAC mediated translocation of TORC1-eGFP; experiment: TORC1-eGFP translocation in HeLa:TORC1-eGFP cells transduced with human cMAC; settings: EGTA in the medium; reversed by excess calcium (data not shown)
[2] = system: ICOS; experiment: Jurkat T-cell activation, ICOS surface marker expression; settings: Jurkat cells, PMA alone
Procedure: (§1) Transduction and sensitization of Jurkat cells: Jurkat cells were maintained in RPMI 1640 (GIBCO 21870-076) 10% FC1 Fetal clone1 (Hyclone), 1% Pen/Strep, 1% Glutamax1, 0.1% beta mercaptoethanol. Prior to transduction the cells were switched to transduction media which contains: RPMI 1640 (above) fortified with 2.25 g glucose 1% antibiotic/antimycotic, 1% 1M Hepes (Gibco), 1% 100 mM sodium pyruvate, 10 ml 7.5% Sodium Bicarbonate 10% Fetal Clone serum 1. Cells were seeded 5×104 in transduction media combined with virus (volume in legend) and 4 ug/ml polybrene final concentration and centrifuged at ˜800×g for 3 hrs. For activation of ICOS and IL-2 expression experiments cells were transduced with 50 μl of retroviral supernatant (QL-GW-Final-Kan) and 48 hours post transduction the media was fortified with PMA (phorbol 12-myristate 13-acetate) 10 ng/ml and 24 hours after addition the cells or media were removed for ICOS or IL-2 measurements. […]
(§2) Analysis of ICOS surface marker and IL-2 protein expression: 1.5 uL of ICOS-PE (BD-Parmingen 557802) was combined with ˜1×10^6 Jurkat cells and incubated on ice for 30 min. Cells were centrifuged ˜500×g 5 min and washed 2×PBS and the mean channel flourescence determined using flow cytometry (BD FACSCaliber). IL-2 levels were measured using the QuantiGlo IL-2 Elisa kit (R&D Systems).
(§3) We assessed the role of TRPV6 and cMAC in a T-cell activation screen. […]

[3] = system: NFAT-1; experiment: NFAT-1 translocation in Jurkat cells; settings: PMA alone
Procedure: (§4) Fixing and staining Jurkat cells, NFAT translocation assay: Following treatment Jurkat cells were attached to 96 well plates using the Becton Dickinson Cell-Tak cell adhesive. The suspension cells were centrifuged (800×G) for 5 min onto precoated plates (as per manufacturer's instruction). The attached cells were permeabilized in 3.7% formaldehyde, 0.5% Triton X100 and washed twice with wash buffer (0.5% Triton X100 in PBS) and blocked with 2% BSA, 0.1% Triton X100 in PBS. The cells were incubated in primary antibodies NFAT-1 (Cellomics K01-0011-1 diluted 1:100) and NFAT-2 (Affinity Bioreagents MA3-024 diluted 1:250) in blocking buffer for 1 hour at room temperature. Cells were washed twice with wash buffer and incubated with secondary goat anti-mouse IgG conjugated to Alexa Fluor 488 GαM (Cellomics K01-0011-1 reagents antibody diluted 1:2000, and Hoechst dye 1:2000) in blocking buffer. Cells were washed once with PBS and imaged. […]
(§5) The effect of cMAC on the nuclear translocation of the transcription factor NFAT and its dependence on calcineurin was also examined. […] While NFAT-1 and NFAT-2 were detected in the cytoplasm of control virus infected cells, both isoforms of NFAT were localized primarily in the nucleus in a large proportion of cMAC transduced cells. […]

[4] = system: NFAT-2; experiment: NFAT-2 translocation in Jurkat cells; settings: PMA alone
Procedure: as §4, §5

[5] = system: IL-2; experiment: Jurkat T-cell activation, IL-2 protein (ELISA); settings: Jurkat cells, PMA alone
Procedure: as §1, §2, §3

[6] = system: IL-2; experiment: IL-2 production of TCR/CD28 activated Jurkat T-cells after viral shDNA transduction; settings: TCR/CD28 activated 6 days post transduction; for Average IL-2 % inhibition: pLKO.1 shDNA, puromycin selected, IL-2 normalized to viable cells
Procedure: as §2
Jurkat cell activation for shDNA inhibition studies: To assess shDNA efficacy, Jurkat cells (15000) were transduced with 10 μL LKO virus as described and 24 hours post transduction the media was fortified with puromycin (see below). Six days post transduction half the cells were activated with antibodies targeting TCR and CD28 receptors bound to a 96 well plate surface and incubated overnight and the media was collected for IL-2 determination. The remaining cells were used to determine the fraction of viable cells in each well using the Cell Titer-Glo assay (see below).
The activation plates were prepared by coating goat anti-mouse IgG, Fcγ fragment specific antibody (Jackson ImmunoResearch Laboratories) 55 μl per well at a final concentration of 10 μg/ml in PBS. The plates were incubated 3 hours at room temperature. Excess IgG was removed and plates were blotted. Plates were blocked with 300 μL 2% BSA/PBS (BSA, Fraction V lyophilizate, Roche) and incubated for 2 hours at room temperature. The plates were washed 3 times with PBS and stimulating antibodies anti-TCR 0.01 ug/ml (BD Biosciences 347770 clone WT31) and anti-CD28 0.3 ug/ml (BD Pharmingen 555725) in 2% BSA/PBS final volume 50 μL/well. Plates were incubated overnight and washed 3 times with PBS prior to addition of cells for activation.
(§6) Puromycin selection of shDNA transduced Jurkat cells and normalization for cell survival: The LKO viral vector used in this study contains a puromycin selection marker. Jurkat cells infected with shDNA constructs (LKO.1) were put under puromycin selection 24 hrs post infection by addition of puromycin (2 μg/ml) and maintained for the duration of the experiment (6 days post infection, 3 days for mRNA quantitation). To account for differences in cell number after puromycin selection (possibly due to variations in viral titer), we adopted a cellular ATP assay which is proportional to cell number (Cell Titer-Glo Luminescent Assay Kit, Promega). The assay was performed as per the manufacturer's instruction. A standard curve was generated for each cell type to determine linearity for the assay. The IL-2 concentrations were normalized to cell number by dividing the calculated IL-2 concentration by the rLU values for the cell titer-glo assay, which is equivalent to IL-2 expression/cell number. The mRNA expression levels were determined 3 days post infection.
To assess whether cMAC was essential for T-cell activation, we designed several shDNA constructs targeting cMAC. In these experiments Jurkat T-cells were transduced with viral constructs targeting cMAC or another unrelated gene. 6 days post transduction, the cells were activated with TCR/CD28 antibodies and the level of cMAC mRNA and IL-2 secreted into the media was measured. […] FIG. 10.

[7] = system: cMAC mRNA; experiment: cMAC mRNA knockdown in shDNA transduced Jurkat cells; settings: for Average cMAC mRNA % Inhib.: 3 days post infection (2 days post puromycin selection)
Procedure: as §6
Determination of mRNA knockdown for cMAC: Jurkat mRNA expression levels were determined 3 days post infection (2 days post puromycin selection).
To determine the specificity of the shDNA construct, the reduction of cMAC mRNA was measured for each construct (Table 8) and compared to the inhibition of IL-2 observed. The pGL3-Luc and CD29 shDNA constructs served as negative controls. […] In those instances it may be that the shDNA is causing decreases in the expression of cMAC protein through microRNA effects. Thus, it appears that with the exception of 2 constructs (BL6 and BL8) the phenotypically active IL-2 constructs correlate with reduced cMAC mRNA levels.

[8] = system: CD29 mRNA; experiment: CD29 mRNA knockdown by shDNA construct

O=C(O)CN(CCOCCOCCN(CC(=O)O)CC(=O)O)CC(=O)O [EGTA]
effect on cMAC induced nuclear TORC1 translocation [1]: blocked

CCCCCCCCCCCCCC(=O)O[C@@H]1[C@@H](C)[C@@]2(O)[C@@H](C=C(CO)C[C@]3(O)C(=O)C(C)=C[C@@H]23)[C@@H]2C(C)(C)[C@]12OC(C)=O [PMA, phorbol 12-myristate 13-acetate]
upregulation of ICOS expression levels [2]: did not upregulate | effect on NFAT-1 translocation [3]: no effect | effect on NFAT-2 translocation [4]: no effect | upregulation of IL-2 [5]: did not upregulate

B1: cMAC BL8: shDNA construct in pLKO.1 lentiviral vector, target sequence gtcaggtgccacatgagaa (SEQ ID NO: 123) (nucleic acid)
sense: CCGGGTCAGGTGCCACATGAGAATTCAAGAGATTCTCATGTGGCACCTGACTTTTT
antisense: AATTAAAAAGTCAGGTGCCACATGAGAATCTCTTGAATTCTCATGTGGCACCTGAC
IL-2 reduction [6]: without any IL-2 reduction | Average IL-2 % inhibition [6]: 8.03% | Average cMAC mRNA % Inhib. [7]: 70.1% | Average cMAC mRNA % Inhib. ([7]; listed as BL8): 70%

B2: cMAC BL6: shDNA construct in pLKO.1 lentiviral vector, target sequence actagaatgttgacctcga (SEQ ID NO: 117) (nucleic acid)
sense: CCGGACTAGAATGTTGACCTCGATTCAAGAGATCGAGGTCAACATTCTAGTTTTTT
antisense: AATTAAAAAACTAGAATGTTGACCTCGATCTCTTGAATCGAGGTCAACATTCTAGT
IL-2 reduction [6]: without any IL-2 reduction | Average IL-2 % inhibition [6]: −9.34% | Average cMAC mRNA % Inhib. [7]: 35.8% | Average cMAC mRNA % Inhib. ([7]; listed as BL6): 36%

B3: CD29 shDNA construct: negative control shDNA construct targeting CD29, target sequence ggtagaaagtcgggacaaa (SEQ ID NO: 132) (nucleic acid)
sense: CCGGGGTAGAAAGTCGGGACAAATTCAAGAGATTTGTCCCGACTTTCTACCTTTTT
antisense: AATTAAAAAGGTAGAAAGTCGGGACAAATCTCTTGAATTTGTCCCGACTTTCTACC
effect on cMAC message [7]: no effect | reduction of CD29 mRNA [8]: potently reduced CD29 mRNA

B4: cMAC BL4: shDNA construct in pLKO.1 lentiviral vector, target sequence ggttatctgttgcccaaga (SEQ ID NO: 111) (nucleic acid)
sense: CCGGGGTTATCTGTTGCCCAAGATTCAAGAGATCTTGGGCAACAGATAACCTTTTT
antisense: AATTAAAAAGGTTATCTGTTGCCCAAGATCTCTTGAATCTTGGGCAACAGATAACC
Average IL-2 % inhibition [6]: 65.7% | Average cMAC mRNA % Inhib. [7]: 56.2%

B5: cMAC BL5: shDNA construct in pLKO.1 lentiviral vector, target sequence gatttaagcctccctaaga (SEQ ID NO: 114) (nucleic acid)
sense: CCGGGATTTAAGCCTCCCTAAGATTCAAGAGATCTTAGGGAGGCTTAAATCTTTTT
antisense: AATTAAAAAGATTTAAGCCTCCCTAAGATCTCTTGAATCTTAGGGAGGCTTAAATC
Average IL-2 % inhibition [6]: 72.2% | Average cMAC mRNA % Inhib. [7]: 67.0%

B6: cMAC BL7: shDNA construct in pLKO.1 lentiviral vector, target sequence ccgggtttccctattccaa (SEQ ID NO: 120) (nucleic acid)
sense: CCGGCCGGGTTTCCCTATTCCAATTCAAGAGATTGGAATAGGGAAACCCGGTTTTT
antisense: AATTAAAAACCGGGTTTCCCTATTCCAATCTCTTGAATTGGAATAGGGAAACCCGG
Average IL-2 % inhibition [6]: 40.8% | Average cMAC mRNA % Inhib. [7]: 66.4%

B7: cMAC BL9: shDNA construct in pLKO.1 lentiviral vector, target sequence caggaatgtcctccaacca (SEQ ID NO: 126) (nucleic acid)
sense: CCGGCAGGAATGTCCTCCAACCATTCAAGAGATGGTTGGAGGACATTCCTGTTTTT
antisense: AATTAAAAACAGGAATGTCCTCCAACCATCTCTTGAATGGTTGGAGGACATTCCTG
Average IL-2 % inhibition [6]: 37.8% | Average cMAC mRNA % Inhib. [7]: 54.8%

B8: cMAC MB4: shDNA construct in pLKO.1 lentiviral vector, target sequence ccttgggcuggcactcttatt (SEQ ID NO: 129) (nucleic acid)
sense: CCGGCCTTGGGCUGGCACTCTTATTCAAGAGATAAGAGTGCCAGCCCAAGGTTTTT
antisense: AATTAAAAACCTTGGGCTGGCACTCTTATCTCTTGAATAAGAGTGCCAGCCCAAGG
Average IL-2 % inhibition [6]: 78.9% | Average cMAC mRNA % Inhib. [7]: 65.9%

B9: cMAC BL2: shDNA construct in pLKO.1 lentiviral vector, target sequence gcctttgttagatctatca (SEQ ID NO: 105) (nucleic acid)
sense: CCGGGCCTTTGTTAGATCTATCATTCAAGAGATGATAGATCTAACAAAGGCTTTTT
antisense: AATTAAAAAGCCTTTGTTAGATCTATCATCTCTTGAATGATAGATCTAACAAAGGC
Average IL-2 % inhibition [6]: 75.5% | Average cMAC mRNA % Inhib. [7]: 72.6%

B10: cMAC BL3: shDNA construct in pLKO.1 lentiviral vector, target sequence catctttgttggcctacga (SEQ ID NO: 108) (nucleic acid)
sense: CCGGCATCTTTGTTGGCCTACGATTCAAGAGATCGTAGGCCAACAAAGATGTTTTT
antisense: AATTAAAAACATCTTTGTTGGCCTACGATCTCTTGAATCGTAGGCCAACAAAGATG
Average IL-2 % inhibition [6]: 52.1% | Average cMAC mRNA % Inhib. [7]: 30.1%

— patent publication US20090136506A1, “Conserved Membrane Activator of Calcineurin (CMAC), a Novel Therapeutic Protein and Target” (priority 2005, published 2009)
